Reference: article doi:10.1101/681007 (bioRxiv, 2019)

Legend:
[1] = biological target: Human TAp63α (aa10-616, TEV site inserted at aa570 and V599M) (human); test: SEC
native gel or EMSA = biological target: the molecule itself; test: native gel or EMSA

## Human TAp63α (aa10-616, TEV site inserted at aa570 and V599M) (natural protein)
[1]
  stoichiometry N: 2

B1: TAp63α, endogenous in mouse ovaries, untreated (closed dimeric form) (natural protein, mouse (endogenous in ovaries), UniProt O88898-1 40-680, looked up)
chain: MSQSTQTSEFLSPEVFQHIWDFLEQPICSVQPIELNFVDEPSENGATNKIEISMDCIRMQDSDLSDPMWPQYTNLGLLNSMDQQIQNGSSSTSPYNTDHAQNSVTAPSPYAQPSSTFDALSPSPAIPSNTDYPGPHSFDVSFQQSSTAKSATWTYSTELKKLYCQIAKTCPIQIKVMTPPPQGAVIRAMPVYKKAEHVTEVVKRCPNHELSREFNEGQIAPPSHLIRVEGNSHAQYVEDPITGRQSVLVPYEPPQVGTEFTTVLYNFMCNSSCVGGMNRRPILIIVTLETRDGQVLGRRCFEARICACPGRDRKADEDSIRKQQVSDSAKNGDGTKRPFRQNTHGIQMTSIKKRRSPDDELLYLPVRGRETYEMLLKIKESLELMQYLPQHTIETYRQQQQQQHQHLLQKQTSMQSQSSYGNSSPPLNKMNSMNKLPSVSQLINPQQRNALTPTTMPEGMGANIPMMGTHMPMAGDMNGLSPTQALPPPLSMPSTSHCTPPPPYPTDCSIVSFLARLGCSSCLDYFTTQGLTTIYQIEHYSMDDLASLKIPEQFRHAIWKGILDHRQLHDFSSPPHLLRTPSGASTVSVGSSETRGERVIDAVRFTLRQTISFPPRDEWNDFNFDMDSRRNKQQRIKEEGE
Native gel or EMSA
  stoichiometry N: 2

B2: TAp63α, endogenous in mouse ovaries, phosphorylated after 0.5 Gy γ-irradiation (active tetrameric form) (natural protein, mouse (endogenous in ovaries), UniProt O88898-1 40-680, looked up)
chain: MSQSTQTSEFLSPEVFQHIWDFLEQPICSVQPIELNFVDEPSENGATNKIEISMDCIRMQDSDLSDPMWPQYTNLGLLNSMDQQIQNGSSSTSPYNTDHAQNSVTAPSPYAQPSSTFDALSPSPAIPSNTDYPGPHSFDVSFQQSSTAKSATWTYSTELKKLYCQIAKTCPIQIKVMTPPPQGAVIRAMPVYKKAEHVTEVVKRCPNHELSREFNEGQIAPPSHLIRVEGNSHAQYVEDPITGRQSVLVPYEPPQVGTEFTTVLYNFMCNSSCVGGMNRRPILIIVTLETRDGQVLGRRCFEARICACPGRDRKADEDSIRKQQVSDSAKNGDGTKRPFRQNTHGIQMTSIKKRRSPDDELLYLPVRGRETYEMLLKIKESLELMQYLPQHTIETYRQQQQQQHQHLLQKQTSMQSQSSYGNSSPPLNKMNSMNKLPSVSQLINPQQRNALTPTTMPEGMGANIPMMGTHMPMAGDMNGLSPTQALPPPLSMPSTSHCTPPPPYPTDCSIVSFLARLGCSSCLDYFTTQGLTTIYQIEHYSMDDLASLKIPEQFRHAIWKGILDHRQLHDFSSPPHLLRTPSGASTVSVGSSETRGERVIDAVRFTLRQTISFPPRDEWNDFNFDMDSRRNKQQRIKEEGE
modifications: phosphorylated (phosphorylation dependent mobility shift on SDS-PAGE); the sites were not determined in this experiment
Native gel or EMSA
  stoichiometry N: 4
